These results are taken from patent US20230159603A1 (published 2023).

B2: rhIL-12RB2-Fc (Fc fusion)
chain: KIDACKRGDVTVKPSHVILLGSTVNITCSLKPRQGCFHYSRRNKLILYKFDRRINFHHGHSLNSQVTGLPLGTTLFVCKLACINSDEIQICGAEIFVGVAPEQPQNLSCIQKGEQGTVACTWERGRDTHLYTEYTLQLSGPKNLTWQKQCKDIYCDYLDFGINLTPESPESNFTAKVTAVNSLGSSSSLPSTFTFLDIVRPLPPWDIRIKFQKASVSRCTLYWRDEGLVLLNRLRYRPSNSRLWNMVNVTKAKGRHDLLDLKPFTEYEFQISSKLHLYKGSWSDWSESLRAQTPEEEPTGMLDVWYMKRHIDYSRQQISLFWKNLSVSEARGKILHYQVTLQELTGGKAMTQNITGHTSWTTVIPRTGNWAVAVSAANSKGSSLPTRINIMNLCEAGLLAPRQVSANSEGMDNILVTWQPPRKDPSAVQEYVVEWRELHPGGDTQVPLNWLRSRPYNVSALISENIKSYICYEIRVYALSGDQGGCSSILGNSKHKAPLSGPHINAITEEKGSILISWNSIPVQEQMGCLLHYRIYWKERDSNSQPQLCEIPYRVSQNSHPINSLQPRVTYVLWMTALTAAGESSHGNEREFCLQGKAN

Assay in all cases: SPR; KD estimated
Assay [1] deals with rhIL-12RB1-Fc (human, UniProt P42701 24-545).
In assay [2] the target is B2.
Assay [3] concerns the target AK384.

B1: recombinant human IL-12 (rhIL-12) control (ligand)
chain 1: IWELKKDVYVVELDWYPDAPGEMVVLTCDTPEEDGITWTLDQSSEVLGSGKTLTIQVKEFGDAGQYTCHKGGEVLSHSLLLLHKKEDGIWSTDILKDQKEPKNKTFLRCEAKNYSGRFTCWWLTTISTDLTFSVKSSRGSSDPQGVTCGAATLSAERVRGDNKEYEYSVECQEDSACPAAEESLPIEVMVDAVHKLKYENYTSSFFIRDIIKPDPPKNLQLKPLKNSRQVEVSWEYPDTWSTPHSYFSLTFCVQVQGKSKREKKDRVFTDKTSATVICRKNASISVRAQDRYYSSSWSEWASVPCS
chain 2: RNLPVATPDPGMFPCLHHSQNLLRAVSNMLQKARQTLEFYPCTSEEIDHEDITKDKTSTVEACLPLELTKNESCLNSRETSFITNGSCLASRKTSFMMALCLSSIYEDLKMYQVEFKTMNAKLLMDPKRQIFLDQNMLAVIDELMQALNFNSETVPQKSSLEEPDFYKTKIKLCILLHAFRIRAVTIDRVMSYLNAS
For the molecule B1, the Kd (usually a measure of binding affinity in units of concentration) was 60.1 nM in assay [1] and 0.617 nM in assay [2]. B2: the dissociation constant Kd in assay [3] was 1.7 nM.
